Data reported in US20110190196A1 (University of California, published 2011).
Read-outs that look alike come from different tables or passages of the source.

How the values were obtained:
Experiment in all cases: cell-based or functional assay
[1] = biological target: T1, ATP-binding cassette transporter A1 (ABCA1) (UniProt P41233 1-2261, limits assumed)
[2] = biological target: T1, ATP-binding cassette transporter A1 …; remark: listed apart in the source
[3] = biological target: T1, ATP-binding cassette transporter A1 …; remark: listed apart in the source
[4] = biological target: T1, ATP-binding cassette transporter A1 …; remark: listed apart in the source

T1 sequence (P41233 whole entry): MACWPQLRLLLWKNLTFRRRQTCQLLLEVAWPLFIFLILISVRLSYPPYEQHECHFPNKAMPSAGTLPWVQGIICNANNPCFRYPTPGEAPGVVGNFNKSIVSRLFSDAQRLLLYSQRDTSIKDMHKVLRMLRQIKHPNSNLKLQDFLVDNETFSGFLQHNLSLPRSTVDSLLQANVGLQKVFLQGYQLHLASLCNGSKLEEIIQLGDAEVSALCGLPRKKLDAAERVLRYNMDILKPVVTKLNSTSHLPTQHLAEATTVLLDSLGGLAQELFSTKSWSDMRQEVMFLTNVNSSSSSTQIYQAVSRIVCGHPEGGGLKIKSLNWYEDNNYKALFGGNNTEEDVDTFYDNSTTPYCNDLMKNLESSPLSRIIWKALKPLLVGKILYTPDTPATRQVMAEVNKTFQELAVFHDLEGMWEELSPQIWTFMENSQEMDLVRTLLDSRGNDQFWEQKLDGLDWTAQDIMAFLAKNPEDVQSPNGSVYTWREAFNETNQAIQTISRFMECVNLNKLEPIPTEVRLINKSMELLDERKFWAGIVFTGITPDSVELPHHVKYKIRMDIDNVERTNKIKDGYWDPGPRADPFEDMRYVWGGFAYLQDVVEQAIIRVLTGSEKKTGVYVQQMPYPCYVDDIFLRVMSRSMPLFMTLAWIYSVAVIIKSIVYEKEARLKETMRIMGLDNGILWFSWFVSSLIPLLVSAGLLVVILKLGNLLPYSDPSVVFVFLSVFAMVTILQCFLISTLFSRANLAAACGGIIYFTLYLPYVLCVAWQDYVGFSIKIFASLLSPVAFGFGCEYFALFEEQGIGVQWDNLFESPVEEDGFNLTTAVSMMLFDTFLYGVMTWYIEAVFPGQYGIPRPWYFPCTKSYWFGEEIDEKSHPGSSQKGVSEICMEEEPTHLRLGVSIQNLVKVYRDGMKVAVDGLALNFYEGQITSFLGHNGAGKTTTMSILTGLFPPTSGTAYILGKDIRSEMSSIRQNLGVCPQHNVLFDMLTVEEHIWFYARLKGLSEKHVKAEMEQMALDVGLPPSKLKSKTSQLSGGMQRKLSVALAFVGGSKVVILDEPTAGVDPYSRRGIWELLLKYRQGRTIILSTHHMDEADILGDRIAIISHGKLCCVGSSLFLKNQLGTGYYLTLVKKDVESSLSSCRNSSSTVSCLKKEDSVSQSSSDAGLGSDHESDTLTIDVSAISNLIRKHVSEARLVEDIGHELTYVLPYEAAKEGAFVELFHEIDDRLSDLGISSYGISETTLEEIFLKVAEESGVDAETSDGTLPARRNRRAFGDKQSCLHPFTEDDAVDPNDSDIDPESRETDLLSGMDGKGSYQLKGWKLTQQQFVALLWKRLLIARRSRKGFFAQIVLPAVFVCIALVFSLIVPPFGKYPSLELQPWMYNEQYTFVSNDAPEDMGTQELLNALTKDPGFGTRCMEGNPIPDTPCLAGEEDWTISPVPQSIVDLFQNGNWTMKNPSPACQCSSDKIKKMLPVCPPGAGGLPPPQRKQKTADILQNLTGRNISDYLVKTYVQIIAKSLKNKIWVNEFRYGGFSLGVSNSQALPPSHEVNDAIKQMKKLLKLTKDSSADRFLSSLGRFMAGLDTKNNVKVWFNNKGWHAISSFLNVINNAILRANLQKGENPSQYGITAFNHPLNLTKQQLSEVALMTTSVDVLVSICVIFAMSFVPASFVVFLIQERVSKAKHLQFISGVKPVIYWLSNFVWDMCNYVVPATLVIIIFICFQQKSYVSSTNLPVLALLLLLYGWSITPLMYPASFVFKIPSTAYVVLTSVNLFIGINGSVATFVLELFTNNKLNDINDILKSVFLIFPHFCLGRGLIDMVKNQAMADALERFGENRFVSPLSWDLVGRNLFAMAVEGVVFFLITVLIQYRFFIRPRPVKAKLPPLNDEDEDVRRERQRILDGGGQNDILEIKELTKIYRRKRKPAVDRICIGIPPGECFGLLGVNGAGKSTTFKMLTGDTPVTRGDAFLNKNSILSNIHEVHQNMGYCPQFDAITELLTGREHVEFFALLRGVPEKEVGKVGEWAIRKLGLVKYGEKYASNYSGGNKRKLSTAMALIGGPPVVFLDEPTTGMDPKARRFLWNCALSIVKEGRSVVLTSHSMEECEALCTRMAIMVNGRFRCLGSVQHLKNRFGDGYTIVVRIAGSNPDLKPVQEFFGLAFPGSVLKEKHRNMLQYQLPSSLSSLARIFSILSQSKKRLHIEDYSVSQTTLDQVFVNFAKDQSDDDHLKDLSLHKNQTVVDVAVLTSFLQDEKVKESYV

% cholesterol efflux/4 hours at 0.1 µg/ml [1] | % cholesterol efflux/4 hours at 0.3 µg/ml [1] | % cholesterol efflux/4 hours at 1.0 µg/ml [1] | % cholesterol efflux/4 hours at 3.0 µg/ml [1] | % cholesterol efflux/4 hours at 10 µg/ml [1] | % cholesterol efflux/4 hours at 30 µg/ml [1] | % cholesterol efflux/8 hours, No cAMP [2] | % cholesterol efflux/8 hours, Plus cAMP [2] | % cholesterol efflux/8 hours, No cAMP [3] | % cholesterol efflux/8 hours, Plus cAMP [3] | % cholesterol efflux/4 hours at 0.1 µg/ml [4] | % cholesterol efflux/4 hours at 0.3 µg/ml [4] | % cholesterol efflux/4 hours at 1.0 µg/ml [4] | % cholesterol efflux/4 hours at 3.0 µg/ml [4] | % cholesterol efflux/4 hours at 10 µg/ml [4] | % cholesterol efflux/4 hours at 30 µg/ml [4] | Binder
0.14% | 0.61% | 1.89% | 5.68% | 6.06% | 6.52% | 1.72% | 4.25% |  |  |  |  |  |  |  |  | ELREKLEAWFELFAEFFARFKS [N356-4]
 |  |  |  |  |  |  |  | 1.17% | 4.29% | 0.18% | 0.46% | 2.51% | 4.73% | 3.56% | 2.71% | ELREKLEAWLELLRELLERL [N1154-6]
0.01% | 0.23% | 0.67% | 4.07% | 3.78% | 3.91% | 2.09% | 4.04% |  |  |  |  |  |  |  |  | ELREKLEAWFELFAEFFARF [N356-6]
0% | 0.57% | 1.2% | 4.34% | 5.13% | 3.24% | 0.82% | 3.94% |  |  |  |  |  |  |  |  | ELREKLEAWFELFEEFFARFKS [N356-3]
0.15% | 0.23% | 1.17% | 4.99% | 5.49% | 5.66% | 2.78% | 7% |  |  |  |  |  |  |  |  | ELRAKLEAWFEAFAEFFARF [N356-7]
0.02% | 0.31% | 1.59% | 4.27% | 3.86% | 3.2% | 2.18% | 5.97% |  |  |  |  |  |  |  |  | ELREKLEAWFELFAEFFARFK [N356-5]
0% | 0% | 0.02% | 1.3% | 5.7% | 5.92% | 1.27% | 6.52% |  |  |  |  |  |  |  |  | ELREKLEAWRELFEEFFARFKS [N356-2]
0% | 0% | 0.23% | 4.71% | 5.61% | 3.5% | 0.86% | 4.16% |  |  |  |  |  |  |  |  | ELREKLEAWFEAFEEFFARFKS [N356-1]
 |  |  |  |  |  |  |  | 1.23% | 4.14% | 0.23% | 0.83% | 2.26% | 4.14% | 3.24% | 3.28% | ELRERLEAWLELLRELLERL [N1154-7]
